In patent US20240261333A1 (published 2024):
Each block holds one binder with its values, some of them ahead of it.

How the values were obtained:
Test in all cases: co-IP with anti-FLAG, C-FLAG B3GNT2, mass spectrometry
RPS14 = RPS14 (human, UniProt P62263 2-151)
FLG = biological target: T1, FLG (human, UniProt P20930 1-4061, limits assumed)
T1 construct: also called NP_002007.1

HBB = biological target: T2, HBB (human, UniProt P68871 2-147)
T2 construct: also called NP_000509.1

CPSF7 = biological target: T3, CPSF7 (human, UniProt Q8N684 1-471)
T3 construct: also called NP_001129512.1 (+5)
T3 sequence (looked up): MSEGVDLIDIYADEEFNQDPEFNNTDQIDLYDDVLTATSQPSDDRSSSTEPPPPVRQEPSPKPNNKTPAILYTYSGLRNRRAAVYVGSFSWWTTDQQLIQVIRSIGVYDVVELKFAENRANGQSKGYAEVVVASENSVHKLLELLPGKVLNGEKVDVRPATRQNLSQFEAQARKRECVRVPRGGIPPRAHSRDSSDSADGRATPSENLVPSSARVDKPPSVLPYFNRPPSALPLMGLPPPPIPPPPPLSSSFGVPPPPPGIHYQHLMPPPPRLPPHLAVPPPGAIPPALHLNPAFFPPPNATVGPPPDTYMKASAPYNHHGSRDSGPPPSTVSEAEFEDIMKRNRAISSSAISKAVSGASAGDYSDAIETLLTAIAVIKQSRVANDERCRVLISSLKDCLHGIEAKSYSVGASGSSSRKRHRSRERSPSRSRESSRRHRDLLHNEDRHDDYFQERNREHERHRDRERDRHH

PUF60 = biological target: T4, PUF60 (human, UniProt Q9UHX1 1-559, limits assumed)
T4 construct: also called NP_016868724.1
T4 sequence (looked up): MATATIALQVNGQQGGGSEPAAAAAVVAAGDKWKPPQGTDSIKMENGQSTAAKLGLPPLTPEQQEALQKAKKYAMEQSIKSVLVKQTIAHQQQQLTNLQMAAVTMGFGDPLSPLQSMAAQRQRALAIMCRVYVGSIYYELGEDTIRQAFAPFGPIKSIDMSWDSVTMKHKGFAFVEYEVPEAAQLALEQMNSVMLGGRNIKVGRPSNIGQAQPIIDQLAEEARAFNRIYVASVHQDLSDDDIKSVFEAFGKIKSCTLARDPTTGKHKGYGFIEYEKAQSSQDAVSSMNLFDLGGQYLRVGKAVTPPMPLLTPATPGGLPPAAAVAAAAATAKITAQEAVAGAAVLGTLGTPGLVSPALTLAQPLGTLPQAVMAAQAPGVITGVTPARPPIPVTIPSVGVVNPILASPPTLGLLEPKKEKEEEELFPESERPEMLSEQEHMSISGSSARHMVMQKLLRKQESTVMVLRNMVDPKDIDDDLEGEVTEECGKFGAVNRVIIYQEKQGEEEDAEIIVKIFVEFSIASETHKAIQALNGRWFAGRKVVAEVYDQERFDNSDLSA

DDX17 = biological target: T5, DDX17 (human, UniProt Q92841 1-729, limits assumed)
T5 construct: also called NP_001091974.1
T5 sequence (Q92841 whole entry): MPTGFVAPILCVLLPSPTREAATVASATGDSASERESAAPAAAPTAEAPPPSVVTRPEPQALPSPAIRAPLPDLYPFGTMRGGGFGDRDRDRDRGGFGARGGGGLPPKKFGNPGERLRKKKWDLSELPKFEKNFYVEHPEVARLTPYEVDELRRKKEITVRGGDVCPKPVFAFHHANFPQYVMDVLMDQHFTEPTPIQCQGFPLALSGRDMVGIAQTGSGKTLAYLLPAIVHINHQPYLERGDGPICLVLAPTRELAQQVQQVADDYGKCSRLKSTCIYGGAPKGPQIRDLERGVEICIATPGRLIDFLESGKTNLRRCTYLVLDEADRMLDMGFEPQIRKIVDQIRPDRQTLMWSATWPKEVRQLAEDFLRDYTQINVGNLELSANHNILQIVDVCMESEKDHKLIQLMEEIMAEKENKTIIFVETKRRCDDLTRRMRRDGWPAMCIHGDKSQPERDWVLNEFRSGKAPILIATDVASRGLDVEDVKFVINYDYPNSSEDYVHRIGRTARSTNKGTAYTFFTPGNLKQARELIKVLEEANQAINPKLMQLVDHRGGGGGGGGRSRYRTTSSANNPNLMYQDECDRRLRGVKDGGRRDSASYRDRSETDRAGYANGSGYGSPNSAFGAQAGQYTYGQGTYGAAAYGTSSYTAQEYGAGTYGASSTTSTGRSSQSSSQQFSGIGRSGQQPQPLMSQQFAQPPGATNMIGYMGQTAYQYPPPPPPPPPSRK

T2 sequence (P68871 2-147 limits assumed): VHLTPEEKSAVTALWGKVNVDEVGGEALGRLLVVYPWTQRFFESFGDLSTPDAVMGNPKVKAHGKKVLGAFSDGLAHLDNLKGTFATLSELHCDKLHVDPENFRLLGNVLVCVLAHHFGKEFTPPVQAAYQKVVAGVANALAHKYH
T1 sequence (P20930 whole entry): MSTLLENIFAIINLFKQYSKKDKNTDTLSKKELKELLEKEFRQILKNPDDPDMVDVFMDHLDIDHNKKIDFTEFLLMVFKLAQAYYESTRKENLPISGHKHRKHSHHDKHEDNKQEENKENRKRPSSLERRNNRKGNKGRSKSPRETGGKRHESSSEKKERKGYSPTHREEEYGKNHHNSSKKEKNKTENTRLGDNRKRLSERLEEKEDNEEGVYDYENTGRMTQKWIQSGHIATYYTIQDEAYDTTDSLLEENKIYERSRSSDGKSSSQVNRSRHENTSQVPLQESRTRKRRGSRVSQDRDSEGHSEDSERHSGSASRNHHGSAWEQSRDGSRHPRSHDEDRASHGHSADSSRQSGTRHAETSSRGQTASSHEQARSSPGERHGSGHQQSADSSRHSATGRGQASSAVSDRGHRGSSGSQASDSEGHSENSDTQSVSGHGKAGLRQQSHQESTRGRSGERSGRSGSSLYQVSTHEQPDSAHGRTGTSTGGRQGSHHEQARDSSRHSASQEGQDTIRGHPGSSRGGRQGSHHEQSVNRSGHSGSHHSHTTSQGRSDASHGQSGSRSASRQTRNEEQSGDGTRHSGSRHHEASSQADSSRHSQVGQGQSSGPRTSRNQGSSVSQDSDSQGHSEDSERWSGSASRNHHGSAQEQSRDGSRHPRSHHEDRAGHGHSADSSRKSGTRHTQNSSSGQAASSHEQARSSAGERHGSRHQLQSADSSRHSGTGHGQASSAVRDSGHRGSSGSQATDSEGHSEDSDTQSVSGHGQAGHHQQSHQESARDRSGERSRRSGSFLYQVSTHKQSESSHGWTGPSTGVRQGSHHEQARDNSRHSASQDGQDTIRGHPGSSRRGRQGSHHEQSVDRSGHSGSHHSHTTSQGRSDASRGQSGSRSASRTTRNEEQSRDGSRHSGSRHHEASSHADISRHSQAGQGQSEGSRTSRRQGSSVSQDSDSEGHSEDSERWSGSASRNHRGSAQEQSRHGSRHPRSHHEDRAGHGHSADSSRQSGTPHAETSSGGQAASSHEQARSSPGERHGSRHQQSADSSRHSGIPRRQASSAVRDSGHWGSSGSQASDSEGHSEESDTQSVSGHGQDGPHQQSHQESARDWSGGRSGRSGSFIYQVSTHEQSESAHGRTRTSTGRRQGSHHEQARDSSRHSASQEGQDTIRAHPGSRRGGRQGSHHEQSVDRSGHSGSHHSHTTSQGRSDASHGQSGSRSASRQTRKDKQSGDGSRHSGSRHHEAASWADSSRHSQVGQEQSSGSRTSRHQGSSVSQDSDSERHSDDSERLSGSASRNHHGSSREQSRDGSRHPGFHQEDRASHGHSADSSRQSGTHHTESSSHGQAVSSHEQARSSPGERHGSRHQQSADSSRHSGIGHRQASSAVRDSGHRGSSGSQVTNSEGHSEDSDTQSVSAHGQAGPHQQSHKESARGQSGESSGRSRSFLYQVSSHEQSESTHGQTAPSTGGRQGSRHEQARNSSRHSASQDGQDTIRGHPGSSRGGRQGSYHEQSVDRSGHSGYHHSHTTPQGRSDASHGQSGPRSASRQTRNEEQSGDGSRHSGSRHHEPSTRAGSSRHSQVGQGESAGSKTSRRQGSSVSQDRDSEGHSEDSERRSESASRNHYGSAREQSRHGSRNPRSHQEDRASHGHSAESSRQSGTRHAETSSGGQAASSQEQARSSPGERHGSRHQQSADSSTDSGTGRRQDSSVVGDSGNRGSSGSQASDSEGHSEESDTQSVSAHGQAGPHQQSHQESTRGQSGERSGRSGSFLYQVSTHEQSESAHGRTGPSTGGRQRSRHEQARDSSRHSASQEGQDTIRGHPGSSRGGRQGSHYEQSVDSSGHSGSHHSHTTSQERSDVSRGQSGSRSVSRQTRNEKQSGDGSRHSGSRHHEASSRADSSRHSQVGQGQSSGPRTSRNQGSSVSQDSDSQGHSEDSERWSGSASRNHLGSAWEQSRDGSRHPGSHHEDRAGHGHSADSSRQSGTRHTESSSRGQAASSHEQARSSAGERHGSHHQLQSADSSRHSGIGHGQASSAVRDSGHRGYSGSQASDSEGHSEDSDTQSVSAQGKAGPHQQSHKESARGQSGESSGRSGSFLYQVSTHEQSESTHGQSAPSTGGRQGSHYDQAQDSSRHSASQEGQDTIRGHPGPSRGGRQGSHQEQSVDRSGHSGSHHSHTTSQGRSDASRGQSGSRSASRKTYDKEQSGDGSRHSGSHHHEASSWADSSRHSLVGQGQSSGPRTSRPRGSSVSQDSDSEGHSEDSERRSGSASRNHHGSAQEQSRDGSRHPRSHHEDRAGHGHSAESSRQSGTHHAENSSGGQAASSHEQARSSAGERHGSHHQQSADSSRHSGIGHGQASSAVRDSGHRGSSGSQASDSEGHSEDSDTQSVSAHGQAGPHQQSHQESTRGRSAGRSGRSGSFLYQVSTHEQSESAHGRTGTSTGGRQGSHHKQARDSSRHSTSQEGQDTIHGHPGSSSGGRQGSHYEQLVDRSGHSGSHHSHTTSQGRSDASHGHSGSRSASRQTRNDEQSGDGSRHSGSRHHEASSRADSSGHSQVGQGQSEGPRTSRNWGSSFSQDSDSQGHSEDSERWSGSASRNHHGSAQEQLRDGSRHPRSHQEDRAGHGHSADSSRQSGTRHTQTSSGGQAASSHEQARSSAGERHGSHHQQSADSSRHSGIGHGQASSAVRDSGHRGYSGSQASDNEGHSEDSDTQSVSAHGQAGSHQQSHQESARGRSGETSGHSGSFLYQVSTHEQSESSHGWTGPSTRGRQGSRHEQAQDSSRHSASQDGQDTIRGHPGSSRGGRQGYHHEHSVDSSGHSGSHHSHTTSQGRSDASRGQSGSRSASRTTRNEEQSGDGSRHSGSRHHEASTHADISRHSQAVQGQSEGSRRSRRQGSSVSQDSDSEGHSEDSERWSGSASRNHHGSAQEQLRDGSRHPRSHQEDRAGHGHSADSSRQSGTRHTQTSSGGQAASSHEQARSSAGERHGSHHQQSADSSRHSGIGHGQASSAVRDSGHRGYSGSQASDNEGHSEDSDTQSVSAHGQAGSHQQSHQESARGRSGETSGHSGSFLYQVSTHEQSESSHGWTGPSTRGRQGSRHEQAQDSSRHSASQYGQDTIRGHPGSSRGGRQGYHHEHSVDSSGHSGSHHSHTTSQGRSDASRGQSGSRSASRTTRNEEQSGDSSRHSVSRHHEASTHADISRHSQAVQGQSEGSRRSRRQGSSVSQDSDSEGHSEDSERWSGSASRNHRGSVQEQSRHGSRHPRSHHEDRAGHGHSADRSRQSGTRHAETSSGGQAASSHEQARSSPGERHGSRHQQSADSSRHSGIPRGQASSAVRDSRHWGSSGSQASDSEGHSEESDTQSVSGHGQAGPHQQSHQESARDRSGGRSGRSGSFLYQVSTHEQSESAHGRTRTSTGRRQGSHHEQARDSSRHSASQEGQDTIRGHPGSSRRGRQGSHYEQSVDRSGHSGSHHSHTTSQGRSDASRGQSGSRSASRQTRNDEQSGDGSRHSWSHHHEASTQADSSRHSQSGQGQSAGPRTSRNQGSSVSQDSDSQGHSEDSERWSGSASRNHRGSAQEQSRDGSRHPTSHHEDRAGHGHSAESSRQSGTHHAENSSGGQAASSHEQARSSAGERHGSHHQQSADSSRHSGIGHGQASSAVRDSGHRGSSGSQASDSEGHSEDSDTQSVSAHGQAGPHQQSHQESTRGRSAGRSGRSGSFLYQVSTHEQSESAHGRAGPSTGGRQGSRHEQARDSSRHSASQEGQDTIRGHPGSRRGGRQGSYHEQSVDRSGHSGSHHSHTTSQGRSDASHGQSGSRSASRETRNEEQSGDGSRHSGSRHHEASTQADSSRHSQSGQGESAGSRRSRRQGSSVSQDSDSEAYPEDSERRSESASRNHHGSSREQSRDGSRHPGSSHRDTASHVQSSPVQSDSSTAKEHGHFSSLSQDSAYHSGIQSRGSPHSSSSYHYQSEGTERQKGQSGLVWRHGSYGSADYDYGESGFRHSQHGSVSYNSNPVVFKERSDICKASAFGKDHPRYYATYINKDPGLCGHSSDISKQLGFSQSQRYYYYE

co-IP mass spectrometry count (RPS14): 18 | co-IP mass spectrometry count (FLG): 22
B1: C-terminal FLAG tagged B3GNT2 (enzyme, human, UniProt Q9NY97 1-397, looked up)
chain: MSVGRRRIKLLGILMMANVFIYFIMEVSKSSSQEKNGKGEVIIPKEKFWKISTPPEAYWNREQEKLNRQYNPILSMLTNQTGEAGRLSNISHLNYCEPDLRVTSVVTGFNNLPDRFKDFLLYLRCRNYSLLIDQPDKCAKKPFLLLAIKSLTPHFARRQAIRESWGQESNAGNQTVVRVFLLGQTPPEDNHPDLSDMLKFESEKHQDILMWNYRDTFFNLSLKEVLFLRWVSTSCPDTEFVFKGDDDVFVNTHHILNYLNSLSKTKAKDLFIGDVIHNAGPHRDKKLKYYIPEVVYSGLYPPYAGGGGFLYSGHLALRLYHITDQVHLYPIDDVYTGMCLQKLGLVPEKHKGFRTFDIEEKNKNNICSYVDLMLVHSRKPQEMIDIWSQLQSAHLKC
notes: FLAG-tagged ORF overexpressed in cells; pulled down from lysate with mouse anti-FLAG; also called C-FLAG B3GNT2; C-term flag; not shown: C-terminal FLAG tag

B2: C-terminal FLAG tagged B3GNT2 (enzyme, human, UniProt Q9NY97 1-397, looked up)
chain: B1 chain
notes: FLAG-tagged ORF overexpressed in A375 cells; pulled down from the lysate with mouse anti-FLAG; also called C-FLAG B3GNT2; C-term flag; not shown: C-terminal FLAG tag
co-IP/MS count, C-term flag (HBB): 0 | co-IP/MS count, C-term flag (CPSF7): 9 | co-IP/MS count, C-term flag (PUF60): 6 | co-IP/MS count, C-term flag (DDX17): 30
